For the assay, the target named is T1, ACE2 on HEK-293 cells transfected with ACE2 (HEK-ACE2) (UniProt Q9BYF1 18-805).
T1 construct: ACE2 expressed in transfected HEK-293 cells; Expression verified earlier by western blotting (Beyer et al., 2023); also called ACE2-transfected HEK cells; source: HEK-293 cells transfected with ACE2, bought: Innoprot; on cells
Kind of assay: radioligand binding; saturation binding of the radiopeptide (1-2000 nM, 5 MBq/nmol) on HEK-ACE2 cells, 1 h at 4 °C on ice, DMEM without supplements; non-specific binding determined with 20 µM DX600; n = 3. To be noted: one partner purified.

Positions of bridges follow the written chain, without caps; N, C: chain ends. Non-standard residues stand in square brackets, D forms with d. *: point of attachment. DOTA = O=C(O)CN1CCN(CC(=O)O)CCN(CC(=O)*)CCN(CC(=O)O)CC1

T1 sequence (Q9BYF1 18-805): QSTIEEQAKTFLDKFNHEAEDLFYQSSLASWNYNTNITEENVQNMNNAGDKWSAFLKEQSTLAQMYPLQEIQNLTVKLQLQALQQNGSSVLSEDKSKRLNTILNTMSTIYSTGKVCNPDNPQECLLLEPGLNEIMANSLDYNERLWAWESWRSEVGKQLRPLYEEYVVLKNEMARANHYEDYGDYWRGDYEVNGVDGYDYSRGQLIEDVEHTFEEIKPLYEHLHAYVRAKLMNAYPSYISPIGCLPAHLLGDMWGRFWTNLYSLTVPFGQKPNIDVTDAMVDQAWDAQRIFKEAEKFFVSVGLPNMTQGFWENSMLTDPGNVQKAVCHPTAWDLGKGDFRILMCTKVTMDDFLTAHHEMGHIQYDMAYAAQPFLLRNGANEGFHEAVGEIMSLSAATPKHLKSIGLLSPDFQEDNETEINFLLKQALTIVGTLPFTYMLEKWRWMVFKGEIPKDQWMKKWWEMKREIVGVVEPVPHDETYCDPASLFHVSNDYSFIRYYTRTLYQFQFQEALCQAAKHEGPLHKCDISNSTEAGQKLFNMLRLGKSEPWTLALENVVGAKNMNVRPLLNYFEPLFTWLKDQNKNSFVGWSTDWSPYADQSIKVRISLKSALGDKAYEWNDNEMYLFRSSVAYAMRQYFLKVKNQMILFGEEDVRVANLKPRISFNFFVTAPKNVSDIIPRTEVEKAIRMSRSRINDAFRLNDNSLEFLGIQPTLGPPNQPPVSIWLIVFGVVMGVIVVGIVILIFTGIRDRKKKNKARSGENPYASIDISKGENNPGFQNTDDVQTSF

B1: [67Ga]Ga-DOTA-WJL-63 (peptide)
peptide: Ac-[dY]STQISRGFTRDSRGCGSGSGSK(DOTA)-NH2
modifications: bridge N-16; not fully specified (bridges); also: DOTA loaded with 67Ga
notes: WJL-63 with DOTA on the side chain of the C-terminal lysine; printed in three-letter code; Same peptide as m1 with a DOTA chelator and 67Ga; made on Rink amide resin, so the C-terminus should be an amide as in m1; also called radiolabeled DOTA-WJL-63; WJL-63 radiopeptide; source: synthetic peptide, DOTA conjugated, radiolabeled with gallium-67, used without further purification
For orientation: Kd means a measure of binding affinity in units of concentration. Read a low Kd as tighter binding. B1 gave a Kd of 90 nM. In other words, the double-digit nanomolar range.
